Assay results: patent US20160272683A1 (Novo Nordisk, published 2016)
Numbered stars: 1 amine (or outer) side, 2 acyl side, 3 side chain; on linkers, the order of the positions; unused ones are H or OH. * marks the point of attachment. C18 diacid = O=C(O)CCCCCCCCCCCCCCCCC(=O)*; C16 diacid = O=C(O)CCCCCCCCCCCCCCC(=O)*; γGlu = O=C(O)[C@H](CCC(=O)[*:2])N[*:1]; C14 diacid = O=C(O)CCCCCCCCCCCCC(=O)*; C12 diacid = O=C(O)CCCCCCCCCCC(=O)*; Palmitoyl = CCCCCCCCCCCCCCCC(=O)*; AEEA = NCCOCCOCC(=O)O

T1: human amylin receptor (human calcitonin receptor + human RAMP3) (human) (UniProt P30988)
T1 sequence (looked up) 1: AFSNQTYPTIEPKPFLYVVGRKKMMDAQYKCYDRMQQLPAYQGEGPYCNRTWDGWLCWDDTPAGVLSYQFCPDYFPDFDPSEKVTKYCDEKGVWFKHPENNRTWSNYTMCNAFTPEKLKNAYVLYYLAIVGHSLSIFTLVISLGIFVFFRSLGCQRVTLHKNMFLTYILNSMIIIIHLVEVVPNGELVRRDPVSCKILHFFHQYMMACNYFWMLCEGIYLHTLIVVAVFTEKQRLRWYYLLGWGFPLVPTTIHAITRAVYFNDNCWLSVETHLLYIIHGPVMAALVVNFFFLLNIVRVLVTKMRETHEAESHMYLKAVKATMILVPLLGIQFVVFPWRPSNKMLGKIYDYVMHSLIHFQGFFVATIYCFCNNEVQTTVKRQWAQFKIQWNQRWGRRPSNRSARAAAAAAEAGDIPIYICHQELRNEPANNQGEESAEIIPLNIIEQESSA
T1 sequence (looked up) 2: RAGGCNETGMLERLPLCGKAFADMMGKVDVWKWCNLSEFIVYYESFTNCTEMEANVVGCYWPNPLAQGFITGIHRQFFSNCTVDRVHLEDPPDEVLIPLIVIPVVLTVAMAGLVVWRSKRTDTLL

B1: [N-terminal(C16 diacid)]mimylin (peptide)
peptide: {C16 diacid}-EASELSTAALGRLSAELHELATLPRTETGPESP-NH2
B2: [N-terminal(C14 diacid)]mimylin (peptide)
peptide: {C14 diacid}-EASELSTAALGRLSAELHELATLPRTETGPESP-NH2
B3: [N-terminal(C14 diacid-2xgGlu-4xOEG)]mimylin (peptide)
peptide: {C14 diacid-γGlu-γGlu-AEEA-AEEA-AEEA-AEEA}-EASELSTAALGRLSAELHELATLPRTETGPESP-NH2
B4: [N-terminal(C12 diacid)]mimylin (peptide)
peptide: {C12 diacid}-EASELSTAALGRLSAELHELATLPRTETGPESP-NH2
B5: [N-terminal(C16)]mimylin (peptide)
peptide: Palmitoyl-EASELSTAALGRLSAELHELATLPRTETGPESP-NH2
B6: [N-terminal(C18 diacid), 5I]mimylin (peptide)
peptide: {C18 diacid}-EASEISTAALGRLSAELHELATLPRTETGPESP-NH2
SMILES: CC[C@H](C)[C@H](NC(=O)[C@H](CCC(=O)O)NC(=O)[C@H](CO)NC(=O)[C@H](C)NC(=O)[C@H](CCC(=O)O)NC(=O)CCCCCCCCCCCCCCCCC(=O)O)C(=O)N[C@@H](CO)C(=O)N[C@H](C(=O)N[C@@H](C)C(=O)N[C@@H](C)C(=O)N[C@@H](CC(C)C)C(=O)NCC(=O)N[C@@H](CCCNC(=N)N)C(=O)N[C@@H](CC(C)C)C(=O)N[C@@H](CO)C(=O)N[C@@H](C)C(=O)N[C@@H](CCC(=O)O)C(=O)N[C@@H](CC(C)C)C(=O)N[C@@H](Cc1c[nH]cn1)C(=O)N[C@@H](CCC(=O)O)C(=O)N[C@@H](CC(C)C)C(=O)N[C@@H](C)C(=O)N[C@H](C(=O)N[C@@H](CC(C)C)C(=O)N1CCC[C@H]1C(=O)N[C@@H](CCCNC(=N)N)C(=O)N[C@H](C(=O)N[C@@H](CCC(=O)O)C(=O)N[C@H](C(=O)NCC(=O)N1CCC[C@H]1C(=O)N[C@@H](CCC(=O)O)C(=O)N[C@@H](CO)C(=O)N1CCC[C@H]1C(N)=O)[C@@H](C)O)[C@@H](C)O)[C@@H](C)O)[C@@H](C)O
B7: [N-terminal(C18 diacid), 9V]mimylin (peptide)
peptide: {C18 diacid}-EASELSTAVLGRLSAELHELATLPRTETGPESP-NH2
SMILES: CC(C)C[C@H](NC(=O)[C@H](CCC(=O)O)NC(=O)[C@H](Cc1c[nH]cn1)NC(=O)[C@H](CC(C)C)NC(=O)[C@H](CCC(=O)O)NC(=O)[C@H](C)NC(=O)[C@H](CO)NC(=O)[C@H](CC(C)C)NC(=O)[C@H](CCCNC(=N)N)NC(=O)CNC(=O)[C@H](CC(C)C)NC(=O)[C@@H](NC(=O)[C@H](C)NC(=O)[C@@H](NC(=O)[C@H](CO)NC(=O)[C@H](CC(C)C)NC(=O)[C@H](CCC(=O)O)NC(=O)[C@H](CO)NC(=O)[C@H](C)NC(=O)[C@H](CCC(=O)O)NC(=O)CCCCCCCCCCCCCCCCC(=O)O)[C@@H](C)O)C(C)C)C(=O)N[C@@H](C)C(=O)N[C@H](C(=O)N[C@@H](CC(C)C)C(=O)N1CCC[C@H]1C(=O)N[C@@H](CCCNC(=N)N)C(=O)N[C@H](C(=O)N[C@@H](CCC(=O)O)C(=O)N[C@H](C(=O)NCC(=O)N1CCC[C@H]1C(=O)N[C@@H](CCC(=O)O)C(=O)N[C@@H](CO)C(=O)N1CCC[C@H]1C(N)=O)[C@@H](C)O)[C@@H](C)O)[C@@H](C)O

What follows are binders tested against T1, human amylin receptor (human calcitonin receptor + human RAMP3) (human) (assay: whole-cell competition vs 125I-rat amylin (Assay Va)).
An IC50 of 0.498 nM was found for B1 in this work.
An IC50 of 1.19 nM was found for B2 in this work.
An IC50 of 8.38 nM was found for B3 in this work.
An IC50 of 8.97 nM was found for B4 in this work.
An IC50 of 0.435 nM was found for B5 in this work.
An IC50 of 0.429 nM was found for B6 in this work.
An IC50 of 0.796 nM was found for B7 in this work.
